Test results from patent US20240287172A1 (SCIRHOM, published 2024).
Substitutions are numbered along the chain they refer to.

Assays:
Test in all cases: FACS, MEF-DKO cells, 3 µg/ml
hiR2-FL-T522V-T7 = biological target: T1, hiR2-FL-T522V-T7 (human, UniProt Q6PJF5 1-856)
T1 sequence: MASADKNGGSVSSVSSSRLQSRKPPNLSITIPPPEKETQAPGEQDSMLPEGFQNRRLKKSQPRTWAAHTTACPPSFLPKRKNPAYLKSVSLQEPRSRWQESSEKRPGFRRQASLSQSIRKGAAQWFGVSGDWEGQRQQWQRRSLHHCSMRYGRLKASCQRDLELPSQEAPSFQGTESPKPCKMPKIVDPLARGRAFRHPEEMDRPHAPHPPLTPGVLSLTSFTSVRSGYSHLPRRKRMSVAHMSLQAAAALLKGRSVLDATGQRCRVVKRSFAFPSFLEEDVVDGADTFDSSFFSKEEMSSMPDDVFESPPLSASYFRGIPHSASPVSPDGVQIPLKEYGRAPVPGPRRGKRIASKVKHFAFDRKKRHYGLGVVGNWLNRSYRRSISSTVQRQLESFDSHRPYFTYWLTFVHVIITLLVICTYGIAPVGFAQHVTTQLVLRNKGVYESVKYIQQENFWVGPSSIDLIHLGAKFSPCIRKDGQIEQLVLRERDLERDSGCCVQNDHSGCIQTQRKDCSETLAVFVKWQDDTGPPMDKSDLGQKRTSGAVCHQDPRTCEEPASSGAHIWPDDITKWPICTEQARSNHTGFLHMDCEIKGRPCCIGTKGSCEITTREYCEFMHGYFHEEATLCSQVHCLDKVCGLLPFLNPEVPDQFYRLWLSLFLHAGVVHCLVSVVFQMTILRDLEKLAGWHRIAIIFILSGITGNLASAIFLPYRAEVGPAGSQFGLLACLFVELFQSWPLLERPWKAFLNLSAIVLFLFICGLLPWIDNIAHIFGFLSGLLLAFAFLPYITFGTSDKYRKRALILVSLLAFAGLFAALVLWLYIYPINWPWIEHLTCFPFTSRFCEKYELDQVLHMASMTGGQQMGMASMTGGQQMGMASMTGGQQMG

hiR2-FL-F523W-T7 = biological target: T2, hiR2-FL-F523W-T7 (human, UniProt Q6PJF5 1-856)
T2 sequence: T1 sequence with V522T, F523W

hiR2-FL-G531S-T7 = biological target: T3, hiR2-FL-G531S-T7 (human, UniProt Q6PJF5 1-856)
T3 sequence: T1 sequence with V522T, G531S

Measured: loss of binding vs wild type

B1: antibody 48 (antibody, V domains shown)
VH: QVQLQQSGTELVRPGTSVKVSCKASGYAFTNYLIEWVKQRPGQGLEWIGVINPGSGFTKYNEKFKGKATLTADKSSSTVYMHLSSLTSEDSAVYFCARGLYRAMDYWGQGTSVTVSS
VL: DIQMTQSPASQSASLGESVTITCLASQTIATWLAWYQQKPGKSPQLLIYGATTLADGVPSRFSGGGSGTKFSFKISSLQAEDFVSYYCQQLYSTPYTFGGGTKLEIK
notes: mouse IgG, kappa light chain; also called clone #48; purified antibody 48
≥ 30%: hiR2-FL-T522V-T7 | hiR2-FL-F523W-T7 | hiR2-FL-G531S-T7

B2: antibody 50 (antibody, V domains shown)
VH: B1 VH with T9A, T16A, T30S, V79A, H82Q
VL: B1 VL with A30G, G50A, T52A, T53S, S85N, L91I
notes: mouse IgG, kappa light chain; also called clone #50; purified antibody 50
≥ 30%: hiR2-FL-T522V-T7 | hiR2-FL-F523W-T7 | hiR2-FL-G531S-T7
